Results on three proteins are retold here after article PMC8760513, “Mechanistic details of the actinobacterial lyase-catalyzed degradation reaction of 2-hydroxyisobutyryl-CoA” (The Journal of Biological Chemistry, 2021).

The data set deals with the molecule itself. Nature of the data set: crystal structure; sitting drop co-crystals of 10 mg/ml protein with 1 mM 2-HIB-CoA, 5 mM ADP, 5 mM MgCl2 and 5 mM dzThDP (or ThDP for the intermediate/product state); tetramer described as a dimer of dimers.

B1: 2-hydroxyacyl-CoA lyase from Actinomycetospora chiangmaiensis (WT AcHACL) (enzyme)
chain: MADRQDAERSGAGPARQSVPVASLVAEFLQEHGVDRVFGLQGGHIQPIWDQLARRGVRIVDVRDEGSAVHMAHAHTELTGQTAVAMVTAGPGVTNTVTAVANASVSRIPLLVIGGCPPIPQSNMGPLQDIPHTAILEPITRLARTLRSADQVLREFDEAWARASGDRGEPGPVYLEIPTDVLRRDVPPALQMREHLRAKPKRRPQPHPDDVAAVADLIRAAEKPAIISGRGARTTDGTDLVRLLDASGAAYLDTQESRGLVPDSHPAAVGSARSAVMRDTDLLITVGRQLDYQLGMGSPAVFPHAKVVRIADTASELIDNRRGEVEILAEPGAALAAIADALKDHTPDTSWRDELKAKHRKRAEDYRQALHSTENGADGHIHPNRIFGALDALDGDVLDLGETIMIADGGDLLSFGRLGITKARRYLDAGAFGCLGVATPFAIGAALAYPDRPVVAVTGDGAFGITATEIDTAVRHDAKIVVIVSNNRAWNIERYDQAENYGLVVGTDLADSDYAGVARAFGAHGERVTDPAELEGAIRRALANAPALVDVVTTQDAASPDSGKGLGFVPDYQALTPWNDAEVARRQEGI
notes: 2-hydroxyacyl-CoA lyase (AcHACL) of Actinomycetospora chiangmaiensis DSM 45062; residues up to 590 are named in the text; Crystallised with 2-HIB-CoA and dzThDP (7PT1) or ThDP (7PT4); also called actinobacterial 2-hydroxyacyl-CoA lyase
B1: the “stoichiometry N” value was determined as 4.

B2: AcHACL E493A mutant (enzyme)
chain: MADRQDAERSGAGPARQSVPVASLVAEFLQEHGVDRVFGLQGGHIQPIWDQLARRGVRIVDVRDEGSAVHMAHAHTELTGQTAVAMVTAGPGVTNTVTAVANASVSRIPLLVIGGCPPIPQSNMGPLQDIPHTAILEPITRLARTLRSADQVLREFDEAWARASGDRGEPGPVYLEIPTDVLRRDVPPALQMREHLRAKPKRRPQPHPDDVAAVADLIRAAEKPAIISGRGARTTDGTDLVRLLDASGAAYLDTQESRGLVPDSHPAAVGSARSAVMRDTDLLITVGRQLDYQLGMGSPAVFPHAKVVRIADTASELIDNRRGEVEILAEPGAALAAIADALKDHTPDTSWRDELKAKHRKRAEDYRQALHSTENGADGHIHPNRIFGALDALDGDVLDLGETIMIADGGDLLSFGRLGITKARRYLDAGAFGCLGVATPFAIGAALAYPDRPVVAVTGDGAFGITATEIDTAVRHDAKIVVIVSNNRAWNIARYDQAENYGLVVGTDLADSDYAGVARAFGAHGERVTDPAELEGAIRRALANAPALVDVVTTQDAASPDSGKGLGFVPDYQALTPWNDAEVARRQEGI
notes: 2-hydroxyacyl-CoA lyase (AcHACL) of Actinomycetospora chiangmaiensis DSM 45062 with E493A, made by site-directed mutation of the WT construct in pASG-IBA43; it says that the overall structure is identical to the WT (tetramer); also called alanine mutant; source: same protocol as WT)
Turning to B2, the binding result is “binds”.

B3: AcHACL E493Q mutant (enzyme)
chain: MADRQDAERSGAGPARQSVPVASLVAEFLQEHGVDRVFGLQGGHIQPIWDQLARRGVRIVDVRDEGSAVHMAHAHTELTGQTAVAMVTAGPGVTNTVTAVANASVSRIPLLVIGGCPPIPQSNMGPLQDIPHTAILEPITRLARTLRSADQVLREFDEAWARASGDRGEPGPVYLEIPTDVLRRDVPPALQMREHLRAKPKRRPQPHPDDVAAVADLIRAAEKPAIISGRGARTTDGTDLVRLLDASGAAYLDTQESRGLVPDSHPAAVGSARSAVMRDTDLLITVGRQLDYQLGMGSPAVFPHAKVVRIADTASELIDNRRGEVEILAEPGAALAAIADALKDHTPDTSWRDELKAKHRKRAEDYRQALHSTENGADGHIHPNRIFGALDALDGDVLDLGETIMIADGGDLLSFGRLGITKARRYLDAGAFGCLGVATPFAIGAALAYPDRPVVAVTGDGAFGITATEIDTAVRHDAKIVVIVSNNRAWNIQRYDQAENYGLVVGTDLADSDYAGVARAFGAHGERVTDPAELEGAIRRALANAPALVDVVTTQDAASPDSGKGLGFVPDYQALTPWNDAEVARRQEGI
notes: 2-hydroxyacyl-CoA lyase (AcHACL) of Actinomycetospora chiangmaiensis DSM 45062 with E493Q, made by site-directed mutation of the WT construct in pASG-IBA43; it says that the overall structure is identical to the WT (tetramer); source: same protocol as WT)
Consider B3, for which the binding result is on record as “binds”.
